Data as given in paper PMC2754851.
Like-named read-outs stand apart in the source and are kept apart here.

What was measured:
Assay in all cases: pull-down
[1] = molecular target: Doc1-4A APC/C (S. cerevisiae) (UniProt P53886)
[2] = molecular target: Cdc27-A2 APC/C (APC/C with Cdc27 L579A) (S. cerevisiae) (UniProt P53886)
[3] = molecular target: Doc1-4A APC/C (S. cerevisiae) (UniProt P53886); remark: listed apart in the source

Sequence of Doc1-4A APC/C (S. cerevisiae) (P53886 whole entry, looked up): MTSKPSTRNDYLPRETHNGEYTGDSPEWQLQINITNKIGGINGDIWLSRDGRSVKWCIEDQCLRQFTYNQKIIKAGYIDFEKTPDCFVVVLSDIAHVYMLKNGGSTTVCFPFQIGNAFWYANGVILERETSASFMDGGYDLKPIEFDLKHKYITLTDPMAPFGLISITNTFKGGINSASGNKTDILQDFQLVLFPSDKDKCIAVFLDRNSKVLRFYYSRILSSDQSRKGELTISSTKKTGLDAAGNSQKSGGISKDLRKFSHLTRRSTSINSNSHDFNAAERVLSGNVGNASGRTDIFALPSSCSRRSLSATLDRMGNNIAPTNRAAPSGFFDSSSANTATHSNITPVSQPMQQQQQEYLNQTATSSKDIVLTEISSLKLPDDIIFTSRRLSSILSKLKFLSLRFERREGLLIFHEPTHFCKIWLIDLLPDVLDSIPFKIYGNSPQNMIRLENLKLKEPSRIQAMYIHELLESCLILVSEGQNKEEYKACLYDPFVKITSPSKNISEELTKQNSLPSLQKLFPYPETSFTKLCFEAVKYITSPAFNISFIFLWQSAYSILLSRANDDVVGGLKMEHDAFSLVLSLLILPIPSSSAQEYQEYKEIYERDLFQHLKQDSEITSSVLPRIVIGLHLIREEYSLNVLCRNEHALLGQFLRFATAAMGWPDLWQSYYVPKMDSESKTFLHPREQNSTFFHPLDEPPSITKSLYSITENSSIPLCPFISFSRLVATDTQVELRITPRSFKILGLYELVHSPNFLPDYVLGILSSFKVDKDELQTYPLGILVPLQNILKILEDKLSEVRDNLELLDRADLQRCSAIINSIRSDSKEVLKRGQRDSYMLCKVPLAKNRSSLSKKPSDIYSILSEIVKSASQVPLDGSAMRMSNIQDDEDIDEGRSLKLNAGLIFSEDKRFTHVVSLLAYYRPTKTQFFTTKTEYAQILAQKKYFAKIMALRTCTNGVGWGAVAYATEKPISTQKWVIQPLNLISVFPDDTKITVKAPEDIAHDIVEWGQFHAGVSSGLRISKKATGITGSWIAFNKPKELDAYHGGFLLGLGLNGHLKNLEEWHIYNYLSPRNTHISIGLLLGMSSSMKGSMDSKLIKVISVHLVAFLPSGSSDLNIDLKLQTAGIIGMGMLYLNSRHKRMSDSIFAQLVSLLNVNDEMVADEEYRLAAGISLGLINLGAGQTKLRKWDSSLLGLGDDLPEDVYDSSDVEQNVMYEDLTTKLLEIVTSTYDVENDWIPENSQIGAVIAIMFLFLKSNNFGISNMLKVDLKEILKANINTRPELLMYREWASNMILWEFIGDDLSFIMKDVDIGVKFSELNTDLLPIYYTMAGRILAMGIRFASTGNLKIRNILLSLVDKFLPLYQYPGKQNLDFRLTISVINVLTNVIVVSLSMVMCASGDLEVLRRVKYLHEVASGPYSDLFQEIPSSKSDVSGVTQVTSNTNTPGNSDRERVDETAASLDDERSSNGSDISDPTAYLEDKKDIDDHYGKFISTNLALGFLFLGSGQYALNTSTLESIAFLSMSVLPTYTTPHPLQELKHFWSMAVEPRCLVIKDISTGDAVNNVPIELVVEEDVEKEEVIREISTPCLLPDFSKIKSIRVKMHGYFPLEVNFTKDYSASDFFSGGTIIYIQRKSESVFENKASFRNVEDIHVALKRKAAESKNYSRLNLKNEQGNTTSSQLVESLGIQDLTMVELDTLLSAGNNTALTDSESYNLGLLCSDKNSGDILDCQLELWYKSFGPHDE

B1: in vitro translated Cdh1 (natural protein)
chain: MSTNLNPFMNNTPSSSPLKGSESKRVSKRPISSSSSASLLSSPSRRSRPSTVYGDRYIPSRTDIDFNSIVSISSMASVPALNPSSTEDQVEYQKERQAHETYNTLLKNELFGEMLSKDTVGSESSIDRIKNTRPSTRGNVHAENTTRHGYELERVSTPPPEAAGLEEFSPHSTPVTPRRLFTSQQDEITRPSSNSVRGASLLTYQQRKGRRLSAASLLQSQFFDSMSPVRPDSKQLLLSPGKQFRQIAKVPYRVLDAPSLADDFYYSLIDWSSTDVLAVALGKSIFLTDNNTGDVVHLCDTENEYTSLSWIGAGSHLAVGQANGLVEIYDVMKRKCIRTLSGHIDRVACLSWNNHVLTSGSRDHRILHRDVRMPDPFFETIESHTQEVCGLKWNVADNKLASGGNDNVVHVYEGTSKSPILTFDEHKAAVKAMAWSPHKRGVLATGGGTADRRLKIWNVNTSIKMSDIDSGSQICNMVWSKNTNELVTSHGYSKYNLTLWDCNSMDPIAILKGHSFRVLHLTLSNDGTTVVSGAGDETLRYWKLFDKPKAKVQPNSLIFDAFNQIR
modifications: 35S label
half-time of dissociation [1]: 20 min
half-time of dissociation [2]: 10 min
koff [2]: 0.0011 s⁻¹
half-time of dissociation [3]: 22 min
